Measured values reported in patent publication US20240116985A1 (published 2024).
Each block holds one binder with its values, some of them ahead of it. Starred links: 1 amine or outer side, 2 acyl side, 3 side chain; linkers in the order of their positions; H or OH if unused. Positions of bridges follow the written chain, without caps; N, C: chain ends. Non-standard residues stand in square brackets, D forms with d. Primed or numbered codes have the meaning given here. *: point of attachment. PyrS2″ = (S)-3-amino-1-((pent-4-en-1-yloxy)carbonyl)pyrrolidine-3-carboxylic acid (stapling residue), C=CCCCOC(=O)N1CC[C@@](N[*:1])(C(=O)[*:2])C1; B5(17) = 2,2-bis(4-pentenyl)glycine = 2-amino-2-(pent-4-en-1-yl)hept-6-enoic acid, stitching residue, C=CCCCC(CCCC=C)(N[*:1])C(=O)[*:2]; TriAzDap = Dap whose side chain is a 1H-1,2,3-triazol-1-yl bearing the bracketed 4-substituent; B5(3) = 2,2-bis(4-pentenyl)glycine (stitching residue), C=CCCCC(CCCC=C)(N[*:1])C(=O)[*:2]; Phe(3-COOH) = N[C@@H](Cc1cccc(C(=O)O)c1)C(=O)O; Phe(2-CF3) = N[C@@H](Cc1ccccc1C(F)(F)F)C(=O)O; Bta = N[C@@H](Cc1csc2ccccc12)C(=O)O; αAllylPro = C=CC[C@@]1(C(=O)O)CCCN1; tBuAla = CC(C)(C)C[C@H](N)C(=O)O; 3Thi = N[C@@H](Cc1ccsc1)C(=O)O; S8 = C=CCCCCCC[C@](C)(N)C(=O)O; CMe2CO2H = CC(C)(C(=O)O)*; Abu = CC[C@H](N)C(=O)O; Aib = CC(C)(N)C(=O)O

Assays:
[1] = target: T1, beta-catenin in DLD1 TCF/LEF luciferase reporter cells (UniProt P35222 1-781); test: cell-based or functional assay
T1 sequence (looked up): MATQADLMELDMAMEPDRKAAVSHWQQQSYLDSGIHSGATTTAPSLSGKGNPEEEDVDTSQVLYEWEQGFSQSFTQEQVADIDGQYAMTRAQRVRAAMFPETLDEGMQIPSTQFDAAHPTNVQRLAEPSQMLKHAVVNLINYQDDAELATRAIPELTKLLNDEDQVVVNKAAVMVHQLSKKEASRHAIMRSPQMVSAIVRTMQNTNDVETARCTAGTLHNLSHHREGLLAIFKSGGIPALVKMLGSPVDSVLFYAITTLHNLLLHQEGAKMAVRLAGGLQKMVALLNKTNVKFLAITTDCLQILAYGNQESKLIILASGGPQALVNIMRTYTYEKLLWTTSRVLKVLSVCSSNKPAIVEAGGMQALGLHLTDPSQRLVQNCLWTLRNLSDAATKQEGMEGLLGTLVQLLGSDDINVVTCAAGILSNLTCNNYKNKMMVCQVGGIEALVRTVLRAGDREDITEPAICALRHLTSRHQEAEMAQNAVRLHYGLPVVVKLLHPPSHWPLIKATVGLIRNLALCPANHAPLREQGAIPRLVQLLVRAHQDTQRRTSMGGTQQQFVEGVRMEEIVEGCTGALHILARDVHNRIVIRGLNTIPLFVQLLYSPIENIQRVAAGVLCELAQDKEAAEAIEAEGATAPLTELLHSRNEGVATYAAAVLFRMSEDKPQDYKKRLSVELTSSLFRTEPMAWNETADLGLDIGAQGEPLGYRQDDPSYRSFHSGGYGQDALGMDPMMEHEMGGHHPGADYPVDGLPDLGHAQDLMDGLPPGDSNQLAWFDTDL

[2] = target: T2, full-length beta-Catenin (Uniprot ID P35222) (Homo sapiens (Human), UniProt P35222 1-781); test: fluorescence polarization competition; full-length beta-catenin, competitor 5FAM-TCF4(10-53) probe
T2 construct: also called bCat; B-Catenin
T2 sequence: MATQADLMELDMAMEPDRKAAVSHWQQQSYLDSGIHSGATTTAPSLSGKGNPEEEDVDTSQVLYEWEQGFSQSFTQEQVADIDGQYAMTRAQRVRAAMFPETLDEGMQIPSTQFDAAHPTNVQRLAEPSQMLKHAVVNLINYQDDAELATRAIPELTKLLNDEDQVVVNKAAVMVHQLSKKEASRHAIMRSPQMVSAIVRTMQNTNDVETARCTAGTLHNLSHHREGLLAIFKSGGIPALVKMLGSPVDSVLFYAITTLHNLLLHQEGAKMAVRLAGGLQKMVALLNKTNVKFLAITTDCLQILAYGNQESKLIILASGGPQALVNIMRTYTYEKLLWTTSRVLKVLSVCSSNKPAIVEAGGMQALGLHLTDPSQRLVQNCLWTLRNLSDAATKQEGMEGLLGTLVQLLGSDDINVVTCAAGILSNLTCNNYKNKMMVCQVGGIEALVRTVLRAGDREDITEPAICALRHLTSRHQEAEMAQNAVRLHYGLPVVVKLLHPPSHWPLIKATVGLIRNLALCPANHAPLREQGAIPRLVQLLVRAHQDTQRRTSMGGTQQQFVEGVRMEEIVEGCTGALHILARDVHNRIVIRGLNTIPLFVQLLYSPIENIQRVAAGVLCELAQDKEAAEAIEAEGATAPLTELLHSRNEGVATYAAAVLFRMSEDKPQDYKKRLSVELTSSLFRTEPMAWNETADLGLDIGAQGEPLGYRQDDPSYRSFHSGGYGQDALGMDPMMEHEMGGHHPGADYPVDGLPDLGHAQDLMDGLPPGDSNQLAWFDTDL
How it was run: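 Plate incubated 60 minutes at 20° C. protected from light before reading. Concentrations given are final.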

B-cat-Halo = target: T3, B-cat-Halo (UniProt P35222 1-781, HaloTag NanoBRET 618 Ligand bound in the assay); test: NanoBRET Abs IC50 in HEK293 cells; B-cat-Halo, competitor TCF4-Luc
T3 construct: Transfected into HEK293 cells for the NanoBRET assay; also called beta-catenin HaloTag NanoBRET construct; not shown: HaloTag
T3 sequence (looked up): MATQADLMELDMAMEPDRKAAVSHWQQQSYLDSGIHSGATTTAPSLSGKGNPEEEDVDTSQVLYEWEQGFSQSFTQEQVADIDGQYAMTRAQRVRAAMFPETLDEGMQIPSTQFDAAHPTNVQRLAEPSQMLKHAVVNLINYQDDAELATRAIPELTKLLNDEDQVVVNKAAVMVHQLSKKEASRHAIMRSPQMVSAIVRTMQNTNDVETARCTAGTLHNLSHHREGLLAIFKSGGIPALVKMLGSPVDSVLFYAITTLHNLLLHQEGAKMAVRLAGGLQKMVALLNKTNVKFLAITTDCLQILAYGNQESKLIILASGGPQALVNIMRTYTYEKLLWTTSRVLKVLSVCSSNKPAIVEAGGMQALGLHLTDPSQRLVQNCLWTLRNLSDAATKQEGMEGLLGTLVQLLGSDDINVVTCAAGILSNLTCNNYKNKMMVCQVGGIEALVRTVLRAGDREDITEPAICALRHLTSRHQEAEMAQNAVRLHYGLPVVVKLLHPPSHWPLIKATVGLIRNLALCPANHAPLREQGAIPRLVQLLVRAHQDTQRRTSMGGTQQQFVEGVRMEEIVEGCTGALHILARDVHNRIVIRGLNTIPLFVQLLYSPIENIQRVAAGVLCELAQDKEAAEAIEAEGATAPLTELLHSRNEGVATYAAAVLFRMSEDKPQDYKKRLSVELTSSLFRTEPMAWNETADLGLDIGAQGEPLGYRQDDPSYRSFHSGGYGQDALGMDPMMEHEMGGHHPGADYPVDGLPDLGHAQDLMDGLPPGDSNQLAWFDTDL

[3] = target: T4, beta-catenin in DLD1 TCF/LEF luciferase reporter cells (UniProt P35222 1-781); test: cell-based or functional assay; remark: listed apart in the source
T4 sequence (looked up): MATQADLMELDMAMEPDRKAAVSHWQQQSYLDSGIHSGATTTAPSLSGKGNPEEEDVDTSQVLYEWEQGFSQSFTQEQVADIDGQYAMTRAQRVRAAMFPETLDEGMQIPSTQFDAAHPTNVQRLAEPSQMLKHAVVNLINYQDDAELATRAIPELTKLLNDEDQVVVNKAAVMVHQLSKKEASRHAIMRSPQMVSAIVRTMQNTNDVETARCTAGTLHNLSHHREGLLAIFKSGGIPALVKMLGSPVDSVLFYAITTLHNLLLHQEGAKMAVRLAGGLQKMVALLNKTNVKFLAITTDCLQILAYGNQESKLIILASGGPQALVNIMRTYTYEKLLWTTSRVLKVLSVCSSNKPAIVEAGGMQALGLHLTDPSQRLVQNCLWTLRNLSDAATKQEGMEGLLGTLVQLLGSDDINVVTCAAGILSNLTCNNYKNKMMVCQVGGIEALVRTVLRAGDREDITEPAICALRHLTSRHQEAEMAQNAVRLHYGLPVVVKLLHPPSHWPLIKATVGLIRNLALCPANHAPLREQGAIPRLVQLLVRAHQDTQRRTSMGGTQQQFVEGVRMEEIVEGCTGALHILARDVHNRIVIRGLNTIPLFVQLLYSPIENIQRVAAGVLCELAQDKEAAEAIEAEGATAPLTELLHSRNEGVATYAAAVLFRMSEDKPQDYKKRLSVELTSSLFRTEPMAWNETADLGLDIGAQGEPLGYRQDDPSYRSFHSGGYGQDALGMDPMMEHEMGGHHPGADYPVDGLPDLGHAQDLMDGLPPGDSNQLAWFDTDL

[4] = target: T5, B-cat-Halo (beta-catenin HaloTag NanoBRET construct expressed in HEK293 cells) (UniProt P35222 1-781); test: cell-based or functional assay
T5 sequence (looked up): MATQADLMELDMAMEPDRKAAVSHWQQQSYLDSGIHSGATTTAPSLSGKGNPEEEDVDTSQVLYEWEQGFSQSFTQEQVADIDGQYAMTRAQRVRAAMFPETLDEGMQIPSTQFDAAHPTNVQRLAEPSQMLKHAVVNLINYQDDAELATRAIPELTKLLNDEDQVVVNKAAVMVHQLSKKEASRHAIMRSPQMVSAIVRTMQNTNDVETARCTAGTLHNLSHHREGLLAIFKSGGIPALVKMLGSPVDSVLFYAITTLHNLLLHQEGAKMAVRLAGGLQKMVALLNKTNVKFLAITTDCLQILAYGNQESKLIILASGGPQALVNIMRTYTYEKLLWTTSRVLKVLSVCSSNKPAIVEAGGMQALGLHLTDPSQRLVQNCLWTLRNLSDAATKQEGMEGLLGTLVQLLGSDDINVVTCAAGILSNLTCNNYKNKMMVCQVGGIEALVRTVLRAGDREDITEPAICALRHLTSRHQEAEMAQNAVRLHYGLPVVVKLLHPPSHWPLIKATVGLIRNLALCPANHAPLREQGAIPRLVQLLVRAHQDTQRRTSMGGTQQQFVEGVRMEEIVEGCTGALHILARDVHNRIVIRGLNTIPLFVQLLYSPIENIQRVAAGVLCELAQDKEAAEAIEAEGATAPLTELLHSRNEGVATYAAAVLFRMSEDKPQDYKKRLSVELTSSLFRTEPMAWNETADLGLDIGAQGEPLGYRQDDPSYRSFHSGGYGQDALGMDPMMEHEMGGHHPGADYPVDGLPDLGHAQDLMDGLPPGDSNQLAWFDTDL

B3: I-731 (peptide)
peptide: Ac-[αAllylPro]DL[B5(17)]DEAAFN[S8]F[Bta]Q[dA]-NH2
modifications: staple 1-4, 4-11
notes: also called Ac-PL3-Asp-Leu-B5-Asp-Glu-Ala-Ala-Phe-Asn-S8-Phe-BztA-Gln-dAla-NH2
IC50 [2]: 34 nM | IC50 (B-cat-Halo): 11600 nM

B4: Ac-PL3-Asp-Npg-B5-Asp-3COOHF-Aib-Ala-Phe-Abu-PyrS2-3Thi-BztA-Me2Gln-Ala-NH2 (peptide)
peptide: Ac-[αAllylPro]D[tBuAla][B5(3)]D[Phe(3-COOH)][Aib]AF[Abu][PyrS2″][3Thi][Bta][Me2Gln]A-NH2
modifications: staple 1-4, 4-11
DLD1 4% Abs IC50 [3]: 600 nM | NanoBRET Abs IC50 [4]: 2300 nM

Results, then the binder that gave them:

DLD1 4% Abs IC50 [1]: 2600 nM
B1: I-2374 (peptide)
peptide: Ac-[αAllylPro]D[tBuAla][B5(3)]D[TriAzDap](CMe2CO2H)AAFL[PyrS2″][Phe(2-CF3)][Bta]S-NH2
modifications: staple 1-4, 4-11

IC50 [2]: 35 nM | IC50 (B-cat-Halo): 11200 nM
B2: I-730 (peptide)
peptide: XDLXDEAAFNXFXQA
modifications: not fully specified; N-terminal Ac; C-terminal NH2; PL3 at 1, B5 at 4, S8 at 11, BztA at 13; stapled PL3-B5 and B5-S8 by olefin metathesis
notes: Stapled peptide; also called Ac-PL3-Asp-Leu-B5-Asp-Glu-Ala-Ala-Phe-Asn-S8-Phe-BztA-Gln-Ala-NH2
